Data reported in publication PMC8771699 (ACS Omega, 2022).

Test: FE-SEM self-assembly
Assay type: physicochemical
Conditions: HEPES pH 7.4, porphyrin 1.15 × 10^–3 M, peptide 2.3 × 10^–3 M, time of incubation 7 days

RGDSGAITIGH [RGDSGAITIGH + Py3P-Lys-NTA + Ni^2+]
self-assembled nanostructure morphology: porous fibrillar network
